The target in one test is PARP1 (human) (UniProt P09874). The test is described as follows: co-IP, anti-FLAG, lysate of cells with C-FLAG B3GNT2; mass spectrometry.
The target in the next test is EIF5B (human) (UniProt O60841). The description is as above.
A further test addresses SPTAN1 (human) (UniProt Q13813). Described as above.
Another test deals with RPL10 (human) (UniProt P27635). The description is as above.
The next test has as its target CSE1L (human) (UniProt P55060). Described as above.
The next test has as its target HADHB (human) (UniProt P55084). The description is as above.
In another test the target is RPL4 (human) (UniProt P36578). The description is as above.
The next test deals with DNAJC3 (human) (UniProt Q13217). The test is described as above.
In a further test the target is KRT4 (human) (UniProt P19013). The test is described as above.
The next test concerns the target LSM12 (human) (UniProt Q3MHD2). The test is described as above.
Another test has as its target ARPC4 (human) (UniProt P59998). Described as above.
Another test deals with T1, MOV10 (human) (UniProt Q9HCE1).
T1 sequence (looked up): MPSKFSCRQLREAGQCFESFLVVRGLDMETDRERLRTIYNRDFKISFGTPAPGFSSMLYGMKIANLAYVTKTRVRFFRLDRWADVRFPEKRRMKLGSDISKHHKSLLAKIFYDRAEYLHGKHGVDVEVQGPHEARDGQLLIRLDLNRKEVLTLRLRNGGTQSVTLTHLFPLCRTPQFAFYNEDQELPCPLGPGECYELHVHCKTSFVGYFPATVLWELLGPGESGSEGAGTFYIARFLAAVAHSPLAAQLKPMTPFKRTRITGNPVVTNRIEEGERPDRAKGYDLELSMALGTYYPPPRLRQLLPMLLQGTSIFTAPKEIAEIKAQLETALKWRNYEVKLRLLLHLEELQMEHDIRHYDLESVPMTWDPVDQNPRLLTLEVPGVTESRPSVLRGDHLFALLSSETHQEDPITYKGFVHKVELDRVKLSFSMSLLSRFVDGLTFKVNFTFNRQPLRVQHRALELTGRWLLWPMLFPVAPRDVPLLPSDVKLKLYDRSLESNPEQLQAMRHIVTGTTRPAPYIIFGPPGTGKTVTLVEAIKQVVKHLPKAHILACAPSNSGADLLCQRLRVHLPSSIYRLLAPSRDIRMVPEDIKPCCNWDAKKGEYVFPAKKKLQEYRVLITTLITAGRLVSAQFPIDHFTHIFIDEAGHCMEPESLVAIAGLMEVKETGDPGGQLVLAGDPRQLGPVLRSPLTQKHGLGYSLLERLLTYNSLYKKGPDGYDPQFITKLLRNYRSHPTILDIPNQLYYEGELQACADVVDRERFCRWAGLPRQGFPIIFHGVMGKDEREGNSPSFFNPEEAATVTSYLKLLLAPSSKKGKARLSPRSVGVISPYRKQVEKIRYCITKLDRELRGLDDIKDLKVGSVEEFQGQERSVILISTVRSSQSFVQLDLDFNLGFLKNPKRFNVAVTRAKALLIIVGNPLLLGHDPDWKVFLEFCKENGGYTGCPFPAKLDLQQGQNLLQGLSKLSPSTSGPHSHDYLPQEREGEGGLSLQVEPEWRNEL
Described as above.

The target of the next test is T2, SERBP1 (human) (UniProt Q8NC51).
T2 sequence (looked up): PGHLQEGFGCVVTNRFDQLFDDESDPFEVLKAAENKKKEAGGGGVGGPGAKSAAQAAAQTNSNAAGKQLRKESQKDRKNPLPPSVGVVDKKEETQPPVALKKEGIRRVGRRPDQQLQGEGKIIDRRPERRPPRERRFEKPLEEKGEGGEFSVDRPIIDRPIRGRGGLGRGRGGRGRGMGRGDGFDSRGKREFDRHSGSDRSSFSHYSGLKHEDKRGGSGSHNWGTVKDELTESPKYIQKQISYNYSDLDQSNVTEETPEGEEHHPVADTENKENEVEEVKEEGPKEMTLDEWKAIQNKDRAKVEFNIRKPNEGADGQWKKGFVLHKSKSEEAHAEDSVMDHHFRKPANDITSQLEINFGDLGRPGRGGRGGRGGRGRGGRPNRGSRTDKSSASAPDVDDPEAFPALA
The test is described as above.

For another test, the target named is RPL18 (human) (UniProt Q07020). The test is described as above.
The target of the next test is RPS28 (human) (UniProt P62857). The description is as above.
A further test has as its target HSPA8 (human) (UniProt P11142). The test is described as above.
The next test addresses PUM1 (human) (UniProt Q14671). Described as above.
A further test addresses RPL13 (human) (UniProt P26373). Described as above.
For the next test, the target named is MMS19 (human) (UniProt Q96T76). Put plainly: co-IP with IgG control, lysate of C-FLAG B3GNT2 cells, mass spectrometry.
A further test has as its target RPL7A (human) (UniProt P62424). The test is described as above.
A further test addresses CLTC (human) (UniProt Q00610). The test is described as above.

Chain of DNAJC3 (human) (Q13217 32-504 limits assumed): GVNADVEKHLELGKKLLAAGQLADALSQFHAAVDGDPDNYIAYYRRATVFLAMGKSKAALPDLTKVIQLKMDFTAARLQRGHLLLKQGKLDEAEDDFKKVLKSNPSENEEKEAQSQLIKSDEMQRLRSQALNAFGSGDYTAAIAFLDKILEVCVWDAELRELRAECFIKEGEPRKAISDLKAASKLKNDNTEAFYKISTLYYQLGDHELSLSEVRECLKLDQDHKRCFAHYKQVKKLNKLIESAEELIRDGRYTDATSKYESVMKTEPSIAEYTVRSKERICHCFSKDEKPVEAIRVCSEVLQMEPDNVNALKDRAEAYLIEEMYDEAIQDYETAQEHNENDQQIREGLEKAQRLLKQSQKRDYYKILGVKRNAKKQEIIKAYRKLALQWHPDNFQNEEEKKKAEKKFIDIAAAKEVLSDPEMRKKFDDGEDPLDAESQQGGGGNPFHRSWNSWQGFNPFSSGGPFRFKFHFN
Chain of PARP1 (human) (P09874 2-1014 limits assumed): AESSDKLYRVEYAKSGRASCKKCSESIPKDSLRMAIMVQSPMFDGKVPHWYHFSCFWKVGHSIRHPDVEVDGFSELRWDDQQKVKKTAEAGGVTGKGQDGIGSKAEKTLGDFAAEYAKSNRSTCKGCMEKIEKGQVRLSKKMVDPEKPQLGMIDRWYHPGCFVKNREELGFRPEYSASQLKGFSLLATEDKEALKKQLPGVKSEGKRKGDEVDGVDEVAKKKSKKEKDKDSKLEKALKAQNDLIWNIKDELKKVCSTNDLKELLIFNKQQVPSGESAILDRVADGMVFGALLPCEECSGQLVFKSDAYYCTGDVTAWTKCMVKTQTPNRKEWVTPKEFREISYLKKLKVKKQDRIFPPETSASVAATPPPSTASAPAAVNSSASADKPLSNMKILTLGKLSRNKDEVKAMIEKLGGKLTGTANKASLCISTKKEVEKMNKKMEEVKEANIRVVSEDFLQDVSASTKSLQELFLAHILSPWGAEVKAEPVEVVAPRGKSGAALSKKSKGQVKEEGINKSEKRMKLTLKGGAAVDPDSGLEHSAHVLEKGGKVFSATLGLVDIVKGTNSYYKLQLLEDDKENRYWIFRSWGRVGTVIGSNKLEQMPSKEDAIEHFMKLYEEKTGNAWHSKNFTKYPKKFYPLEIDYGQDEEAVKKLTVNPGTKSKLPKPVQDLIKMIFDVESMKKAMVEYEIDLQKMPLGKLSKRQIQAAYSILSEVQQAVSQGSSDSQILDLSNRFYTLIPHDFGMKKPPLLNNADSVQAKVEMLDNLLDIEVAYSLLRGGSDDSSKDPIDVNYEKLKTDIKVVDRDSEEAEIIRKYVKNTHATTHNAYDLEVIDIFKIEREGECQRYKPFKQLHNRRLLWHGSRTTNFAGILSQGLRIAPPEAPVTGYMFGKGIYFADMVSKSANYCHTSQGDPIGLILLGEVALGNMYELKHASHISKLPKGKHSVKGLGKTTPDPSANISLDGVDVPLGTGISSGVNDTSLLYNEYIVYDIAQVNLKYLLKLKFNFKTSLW
Chain of PUM1 (human) (Q14671 other isoform, or with tags, fused parts or gaps limits assumed): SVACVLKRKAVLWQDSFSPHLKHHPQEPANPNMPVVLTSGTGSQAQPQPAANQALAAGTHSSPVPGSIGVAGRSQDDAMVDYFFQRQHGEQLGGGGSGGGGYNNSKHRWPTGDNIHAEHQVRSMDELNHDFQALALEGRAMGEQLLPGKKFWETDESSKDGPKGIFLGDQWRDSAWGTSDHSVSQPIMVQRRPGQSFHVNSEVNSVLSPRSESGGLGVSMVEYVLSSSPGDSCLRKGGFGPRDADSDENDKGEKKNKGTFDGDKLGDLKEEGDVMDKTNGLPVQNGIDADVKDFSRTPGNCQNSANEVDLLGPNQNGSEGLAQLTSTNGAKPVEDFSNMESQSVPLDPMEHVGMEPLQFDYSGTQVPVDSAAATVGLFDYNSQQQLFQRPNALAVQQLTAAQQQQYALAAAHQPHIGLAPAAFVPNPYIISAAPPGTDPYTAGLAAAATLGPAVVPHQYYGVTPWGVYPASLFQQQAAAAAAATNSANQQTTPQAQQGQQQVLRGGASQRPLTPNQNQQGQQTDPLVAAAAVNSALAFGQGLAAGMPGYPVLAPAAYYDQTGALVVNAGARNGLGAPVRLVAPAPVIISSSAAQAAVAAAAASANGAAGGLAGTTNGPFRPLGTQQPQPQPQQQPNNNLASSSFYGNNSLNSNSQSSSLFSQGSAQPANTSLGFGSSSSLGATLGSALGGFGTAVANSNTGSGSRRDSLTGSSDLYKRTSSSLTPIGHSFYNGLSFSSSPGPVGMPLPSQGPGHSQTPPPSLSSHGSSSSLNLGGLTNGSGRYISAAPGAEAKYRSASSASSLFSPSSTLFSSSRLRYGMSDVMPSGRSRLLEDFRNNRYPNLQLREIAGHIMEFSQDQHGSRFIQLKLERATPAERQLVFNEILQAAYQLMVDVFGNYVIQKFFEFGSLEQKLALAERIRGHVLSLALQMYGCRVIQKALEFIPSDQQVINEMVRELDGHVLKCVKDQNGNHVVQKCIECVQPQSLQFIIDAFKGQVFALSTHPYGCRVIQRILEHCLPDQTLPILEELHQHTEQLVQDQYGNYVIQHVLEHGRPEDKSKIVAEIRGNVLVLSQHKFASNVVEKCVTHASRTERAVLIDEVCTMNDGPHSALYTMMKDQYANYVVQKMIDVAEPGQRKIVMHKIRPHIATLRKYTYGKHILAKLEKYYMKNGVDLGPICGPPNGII
Chain of MMS19 (human) (Q96T76 other isoform, or with tags, fused parts or gaps limits assumed): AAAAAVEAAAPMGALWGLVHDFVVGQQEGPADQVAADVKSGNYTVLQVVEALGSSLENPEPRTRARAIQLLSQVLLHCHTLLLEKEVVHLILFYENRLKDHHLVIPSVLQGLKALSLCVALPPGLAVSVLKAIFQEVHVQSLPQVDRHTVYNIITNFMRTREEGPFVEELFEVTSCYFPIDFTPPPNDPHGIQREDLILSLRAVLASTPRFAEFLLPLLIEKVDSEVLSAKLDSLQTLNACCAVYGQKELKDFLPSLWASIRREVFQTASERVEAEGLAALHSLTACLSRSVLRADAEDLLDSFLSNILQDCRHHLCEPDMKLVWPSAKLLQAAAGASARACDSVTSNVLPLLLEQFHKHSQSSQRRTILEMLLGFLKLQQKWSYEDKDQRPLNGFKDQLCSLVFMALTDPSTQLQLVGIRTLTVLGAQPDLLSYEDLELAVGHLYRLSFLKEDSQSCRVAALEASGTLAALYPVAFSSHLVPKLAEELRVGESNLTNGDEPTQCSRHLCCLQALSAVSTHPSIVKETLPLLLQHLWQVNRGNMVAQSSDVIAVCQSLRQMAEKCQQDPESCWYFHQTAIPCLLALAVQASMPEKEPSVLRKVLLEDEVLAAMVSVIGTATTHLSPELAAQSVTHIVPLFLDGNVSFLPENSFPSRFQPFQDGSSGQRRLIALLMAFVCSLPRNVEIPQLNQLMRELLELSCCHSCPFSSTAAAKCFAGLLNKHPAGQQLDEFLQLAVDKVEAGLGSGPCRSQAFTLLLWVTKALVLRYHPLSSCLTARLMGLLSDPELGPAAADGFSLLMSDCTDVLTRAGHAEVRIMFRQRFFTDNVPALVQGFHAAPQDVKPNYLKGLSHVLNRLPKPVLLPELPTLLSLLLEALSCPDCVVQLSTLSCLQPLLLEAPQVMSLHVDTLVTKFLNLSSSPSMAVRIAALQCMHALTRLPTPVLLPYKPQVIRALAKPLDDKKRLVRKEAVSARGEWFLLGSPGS
Chain of HSPA8 (human) (P11142 2-646 limits assumed): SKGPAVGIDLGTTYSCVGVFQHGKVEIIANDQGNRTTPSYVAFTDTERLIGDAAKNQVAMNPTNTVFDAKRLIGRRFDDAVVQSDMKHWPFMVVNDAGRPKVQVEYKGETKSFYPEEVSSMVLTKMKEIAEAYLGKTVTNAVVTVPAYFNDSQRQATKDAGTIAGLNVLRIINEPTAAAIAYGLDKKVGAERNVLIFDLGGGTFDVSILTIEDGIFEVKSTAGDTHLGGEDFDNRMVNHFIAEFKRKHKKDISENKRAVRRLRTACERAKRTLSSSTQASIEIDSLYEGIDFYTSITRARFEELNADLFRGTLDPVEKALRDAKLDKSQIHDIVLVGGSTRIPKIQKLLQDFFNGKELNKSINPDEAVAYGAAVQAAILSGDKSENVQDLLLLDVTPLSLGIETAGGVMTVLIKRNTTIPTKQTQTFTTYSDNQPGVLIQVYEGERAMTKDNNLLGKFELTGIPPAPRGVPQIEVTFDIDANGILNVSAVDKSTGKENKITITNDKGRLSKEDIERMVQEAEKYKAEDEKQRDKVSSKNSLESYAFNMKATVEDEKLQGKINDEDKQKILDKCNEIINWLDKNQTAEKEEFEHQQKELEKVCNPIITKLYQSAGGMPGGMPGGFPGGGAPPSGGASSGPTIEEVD
Chain of KRT4 (human) (P19013 whole entry): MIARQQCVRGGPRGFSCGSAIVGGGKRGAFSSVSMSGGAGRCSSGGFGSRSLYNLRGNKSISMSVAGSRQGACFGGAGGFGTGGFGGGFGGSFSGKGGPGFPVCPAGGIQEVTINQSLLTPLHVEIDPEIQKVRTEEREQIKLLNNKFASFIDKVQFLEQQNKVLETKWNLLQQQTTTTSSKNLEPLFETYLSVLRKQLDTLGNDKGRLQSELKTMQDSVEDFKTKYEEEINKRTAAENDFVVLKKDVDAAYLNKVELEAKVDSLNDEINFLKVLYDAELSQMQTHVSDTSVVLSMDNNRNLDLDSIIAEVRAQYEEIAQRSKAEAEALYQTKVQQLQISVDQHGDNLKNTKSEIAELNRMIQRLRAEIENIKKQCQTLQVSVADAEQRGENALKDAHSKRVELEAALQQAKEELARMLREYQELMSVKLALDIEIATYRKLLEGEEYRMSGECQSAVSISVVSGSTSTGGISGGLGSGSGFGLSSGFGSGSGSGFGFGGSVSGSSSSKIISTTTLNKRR
Chain of LSM12 (human) (Q3MHD2 2-195 limits assumed): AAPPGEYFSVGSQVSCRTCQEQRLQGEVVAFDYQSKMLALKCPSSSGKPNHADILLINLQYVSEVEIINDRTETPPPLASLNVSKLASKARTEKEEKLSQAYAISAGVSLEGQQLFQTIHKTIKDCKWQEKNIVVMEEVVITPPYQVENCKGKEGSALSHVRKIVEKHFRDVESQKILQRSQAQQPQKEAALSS

In the case of “C-terminal FLAG tagged B3GNT2 (from UniProt Q9NY97 1-397) (enzyme)”, the co-IP mass spectrometry count with PARP1 (human) came out at 3; in the test with EIF5B (human), 3; in the test with SPTAN1 (human), 3; with RPL10 (human), 15; in the test with CSE1L (human) it was 3; with HADHB (human), 3. In addition, the co-IP mass spectrometry count was 36 with RPL4 (human); 3 in the test with DNAJC3 (human); 37 with KRT4 (human); 4 with LSM12 (human); 3 with ARPC4 (human); 3 with MOV10 (human). In addition, the co-IP mass spectrometry count came out at 10 in the test with SERBP1 (human); 24 in the test with RPL18 (human); 3 with RPS28 (human); 49 with HSPA8 (human); 3 with PUM1 (human); 23 with RPL13 (human).

For “IgG control (Millipore Sigma 12-371) (antibody)”, the co-IP/MS count, C-term IgG with MMS19 (human) was determined as 0; in the test with RPL7A (human), 5; in the test with CLTC (human), 5.
